Square brackets hold non-standard residues; d marks the D form. Ends that are not written are not given here. * marks the point of attachment. Propionyl = CCC(=O)*
B1: desamino-[Ala^1]hPTH(1-34)NH2 (peptide)
peptide: [Propionyl]VSEIQLMHNLGKHLNSMERVEWLRKKLQDVHNF-NH2
SMILES: CCC(=O)N[C@H](C(=O)N[C@@H](CO)C(=O)N[C@@H](CCC(=O)O)C(=O)N[C@H](C(=O)N[C@@H](CCC(N)=O)C(=O)N[C@@H](CC(C)C)C(=O)N[C@@H](CCSC)C(=O)N[C@@H](Cc1c[nH]cn1)C(=O)N[C@@H](CC(N)=O)C(=O)N[C@@H](CC(C)C)C(=O)NCC(=O)N[C@@H](CCCCN)C(=O)N[C@@H](Cc1c[nH]cn1)C(=O)N[C@@H](CC(C)C)C(=O)N[C@@H](CC(N)=O)C(=O)N[C@@H](CO)C(=O)N[C@@H](CCSC)C(=O)N[C@@H](CCC(=O)O)C(=O)N[C@@H](CCCNC(=N)N)C(=O)N[C@H](C(=O)N[C@@H](CCC(=O)O)C(=O)N[C@@H](Cc1c[nH]c2ccccc12)C(=O)N[C@@H](CC(C)C)C(=O)N[C@@H](CCCNC(=N)N)C(=O)N[C@@H](CCCCN)C(=O)N[C@@H](CCCCN)C(=O)N[C@@H](CC(C)C)C(=O)N[C@@H](CCC(N)=O)C(=O)N[C@@H](CC(=O)O)C(=O)N[C@H](C(=O)N[C@@H](Cc1c[nH]cn1)C(=O)N[C@@H](CC(N)=O)C(=O)N[C@@H](Cc1ccccc1)C(N)=O)C(C)C)C(C)C)[C@@H](C)CC)C(C)C
notes: Analog of human PTH(1-34) in which Ser1 is replaced by desamino alanine; also called [desamino Ala^1]PTH(1-34); desamino-[Ala^1] peptide
B2: desamino-[Gly^1]hPTH(1-34)NH2 (peptide)
peptide: [Ac]VSEIQLMHNLGKHLNSMERVEWLRKKLQDVHNF-NH2
notes: Analog of human PTH(1-34) in which Ser1 is replaced by desamino glycine; also called [desaminoGly^1]; PTH(1-34); desamino-[Gly^1] peptide

Legend:
human PTH-1 receptor = target: T1, human PTH-1 receptor (human, UniProt Q03431 27-593); assay: cell-based or functional assay
T1 sequence (looked up): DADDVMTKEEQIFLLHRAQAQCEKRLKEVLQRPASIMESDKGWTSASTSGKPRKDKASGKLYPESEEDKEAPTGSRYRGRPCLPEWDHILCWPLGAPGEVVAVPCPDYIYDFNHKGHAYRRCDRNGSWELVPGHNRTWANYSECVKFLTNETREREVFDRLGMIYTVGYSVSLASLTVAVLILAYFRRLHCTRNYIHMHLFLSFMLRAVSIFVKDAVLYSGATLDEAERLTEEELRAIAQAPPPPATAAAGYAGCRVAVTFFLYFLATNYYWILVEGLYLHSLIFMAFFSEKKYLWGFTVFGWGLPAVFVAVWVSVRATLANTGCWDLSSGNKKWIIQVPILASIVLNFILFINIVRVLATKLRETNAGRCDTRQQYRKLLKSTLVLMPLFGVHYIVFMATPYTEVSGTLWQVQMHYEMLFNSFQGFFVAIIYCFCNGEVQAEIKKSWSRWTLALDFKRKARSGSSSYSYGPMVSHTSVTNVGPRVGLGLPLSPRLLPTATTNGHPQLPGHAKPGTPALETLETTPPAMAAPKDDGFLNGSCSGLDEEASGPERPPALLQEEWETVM

human PTH-2 receptor [1] = target: T2, human PTH-2 receptor (human, UniProt P49190 25-550); assay: cell-based or functional assay
human PTH-2 receptor [2] = target: T2, human PTH-2 receptor; assay: competitive displacement of 125I-[Nle8,21]rPTH(1-34) from HPR2-7 cells expressing the human PTH-2 receptor
Source text: Cell layers were washed three times before solubilization for determination of cell-associated radioactivity.

T2 sequence (P49190 25-550): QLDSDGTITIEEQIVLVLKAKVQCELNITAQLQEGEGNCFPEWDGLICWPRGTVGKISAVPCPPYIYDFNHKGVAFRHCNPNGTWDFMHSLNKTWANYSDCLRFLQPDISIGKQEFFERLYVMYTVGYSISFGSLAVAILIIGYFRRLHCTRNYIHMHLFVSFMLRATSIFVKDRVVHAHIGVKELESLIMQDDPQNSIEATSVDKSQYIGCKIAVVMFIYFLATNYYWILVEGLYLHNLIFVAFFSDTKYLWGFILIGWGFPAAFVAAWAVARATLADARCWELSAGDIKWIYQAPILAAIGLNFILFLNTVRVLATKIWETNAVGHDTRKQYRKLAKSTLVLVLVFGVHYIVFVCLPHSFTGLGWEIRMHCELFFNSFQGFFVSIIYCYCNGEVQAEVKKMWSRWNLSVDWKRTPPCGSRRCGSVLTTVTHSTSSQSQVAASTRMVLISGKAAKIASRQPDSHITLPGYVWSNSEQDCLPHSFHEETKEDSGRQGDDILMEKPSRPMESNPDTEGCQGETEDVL

Molecule	phospholipase C (PLC) activity in HKRK-B7 cells at 1000 nM (% of the hPTH(1-34) maximum) (human PTH-1 receptor)	AC activation relative to hPTH(1-34) (human PTH-2 receptor [1]) [fold]	AC activation relative to hPTH(1-34) (human PTH-1 receptor) [fold]	EC50 of AC activation, fold lower than hPTH(1-34) (human PTH-2 receptor [1]) [fold]	EC50 of adenylyl cyclase (AC) activation (human PTH-2 receptor [1]) [nM]	PLC stimulation relative to 1000 nM hPTH(1-34) (human PTH-2 receptor [1]) [% greater]	maximal AC response relative to hPTH(1-34) (human PTH-2 receptor [1]) [fold]	fold decrease in AC activity relative to the amino-bearing peptide (human PTH-1 receptor) [fold]	fold higher apparent binding affinity relative to hPTH(1-34) (human PTH-2 receptor [2]) [fold]
[Gly^1]hPTH(1-34)NH2 (from UniProt P01270 32-65) (peptide)	50								
VSEIQLMHNLGKHLNSMERVEWLRKKLQDVHNF-NH2 (peptide, UniProt P01270 33-65, looked up) [hPTH(2-34)]		≤ 10	≤ 10						
B1				3	10	50	2	10	10
B2				3	10	50	2	10	10

From patent US20030144209A1 (MASSACHUSETTS GERNERAL HOSPITAL, published 2003)
